Laboratory results reported in US20180200345A1, “PROCESS AND COMPOSITION FOR LOW DOSE INSEMINATION” (IMV TECHNOLOGIES, priority 2015, published 2018).

Test system: uterine epithelial cells (UEC)
Experiment: Sperm binding to UEC monolayer pre-incubated with lectin
Type: cell-based, porcine
Conditions: UEC pre-incubated with lectin 10 μg/ml 15 min, then sperm 10 min
Procedure: Confluent UEC were grown on glass cover slips form primary cell cultures. In total, uteri from 78 primiparous German Landrace or German Edelschwein gilts aged 8-10 months and with live weights of over 110 kg, were retrieved to harvest primary cells. All animals were maintained and handled according to the German regulations for animal welfare. Gilts were monitored for natural oestrus and slaughtered according to standing heat, i.e. at the time when artificial insemination would have been performed. Gilts were stunned electrically and subsequently slaughtered by exsanguination. Three minutes after bleeding the abdomen was opened and the uterus removed in toto. Further, the ovaries, oviducts and the mesometrium were removed by cutting with sterile scissors without damaging the myometrium. The uterine horns were ligated with stitching thread between and a section of 20-25 cm was cut off. The sections were placed in sterile phosphate buffered saline (PBS) without Ca^++ and Mg^++ (Karl Roth, Karlsruhe, Germany) containing 2% Penicillin/Streptomycin (P/S; PAA, Pasching, Austria) in a glass bottle and kept at 5° C. for 45 min. After 45 min at 5° C. the uterine sections were removed from the bottle and placed on cellulose tissue under a sterile laminar flow system. The stitching material was removed. […]

B1: PNA: lectin with affinity for β-D-(1-3)-D-galactosamine (protein, UniProt P02872 24-273, looked up)
Galactose-binding lectin: AETVSFNFNSFSEGNPAINFQGDVTVLSNGNIQLTNLNKVNSVGRVLYAMPVRIWSSATGNVASFLTSFSFEMKDIKDYDPADGIIFFIAPEDTQIPAGSIGGGTLGVSDTKGAGHFVGVEFDTYSNSEYNDPPTDHVGIDVNSVDSVKTVPWNSVSGAVVKVTVIYDSSTKTLSVAVTNDNGDITTIAQVVDLKAKLPERVKFGFSASGSLGGRQIHLIRSWSFTSTLITTTRRSIDNNEKKIMNMASA
For B1, the “effect on sperm binding to UEC (in words)” value was “some areas showed massive sperm binding as seen with untreated UEC, whereas others were not populated at all”.
